Experimental data reported in patent US20110286916A1.

Legend:
[1] = target: endogenous human Notch1 on 293 FlpIn (TREx) parental, LS-1034 and BxPC3 cells (human) (UniProt P46531); assay: FACS, LS-1034 and BxPC3 cells
[2] = target: human full-length Notch1 with C-terminal FLAG tag, stably expressed on 293 FlpIn (TREx) cells (human) (UniProt P46531); assay: FACS, 293 FlpIn (TREx) cells expressing Notch1

MFI [1]: 9
MFI [2]: 9
Substance: IgG isotype control antibody
